Measurements published in the Immune Epitope Database (IEDB).
One block for each sequence: values may come before it.

What was measured:
HLA-B*44:03 = test: IEDB peptide-MHC binding, purified MHC/competitive/radioactivity; filed as Kd, often an IC50 or EC50 that approximates it; ≥ and ≤ were set here for values at or beyond the usual limits of such assays
HLA-B*45:01 = test: as above
HLA-B*40:02 = test: as above
HLA-B*18:01 = test: as above
HLA-B*40:01 [1] = test: as above
HLA-B*44:02 [2] = test: as above
HLA-A*02:01 [3] = test: as above
HLA-A*02:06 = test: as above
HLA-A*68:02 = test: as above
HLA-A*02:02 = test: as above
HLA-A*02:03 = test: as above
HLA-A*11:01 = test: IEDB peptide-MHC binding, purified MHC/direct/fluorescence; filed as Kd, often an IC50 or EC50 that approximates it; ≥ and ≤ were set here for values at or beyond the usual limits of such assays; conditions: source organism: Vibrio vulnificus
HLA-A*69:01 = test: as above; conditions: source organism: Vibrio vulnificus
HLA-A*31:01 = test: as above; conditions: source organism: Vibrio vulnificus
HLA-B*58:01 = test: as above; conditions: source organism: Vibrio vulnificus
HLA-B*27:05 = test: as above; conditions: source organism: Vibrio vulnificus
HLA-B*07:02 = test: as above; conditions: source organism: Vibrio vulnificus
HLA-A*02:01 [4] = test: as above; conditions: source organism: Vibrio vulnificus
HLA-A*26:01 = test: as above; conditions: source organism: Vibrio vulnificus
HLA-B*15:01 = test: as above; conditions: source organism: Vibrio vulnificus
HLA-A*03:01 = test: as above; conditions: source organism: Vibrio vulnificus
HLA-A*01:01 = test: as above; conditions: source organism: Vibrio vulnificus
HLA-B*08:01 = test: as above; conditions: source organism: Vibrio vulnificus
HLA-A*24:03 = test: as above; conditions: source organism: Vibrio vulnificus
HLA-B*40:01 [5] = test: as above; conditions: source organism: Vibrio vulnificus
HLA-B*44:02 [6] = test: as above; conditions: source organism: Vibrio vulnificus
[7] = source organism: SARS coronavirus Tor2
[8] = source organism: Mammarenavirus choriomeningitidis
[9] = source organism: Trypanosoma cruzi
[10] = source organism: Mammarenavirus mopeiaense
[11] = source organism: Lassa virus Josiah
[12] = source organism: Mammarenavirus guanaritoense

Sequence: YEGNSPFHPL
Kd (HLA-B*44:03; [7]): 16.8 µM
Kd (HLA-B*45:01; [7]): ≥ 42.7 µM
Kd (HLA-B*40:02; [7]): 0.0122 µM
Kd (HLA-B*18:01; [7]): 12.3 µM
Kd (HLA-B*40:01 [1]; [7]): 0.0462 µM
Kd (HLA-B*44:02 [2]; [7]): 8.1 µM

Kd (HLA-A*02:01 [3]; source organism: Homo sapiens): ≥ 28.6 µM
Kd (HLA-A*02:06; source organism: Homo sapiens): ≥ 45.6 µM
Kd (HLA-A*68:02; source organism: Homo sapiens): ≥ 21.5 µM
Sequence: TLENERGEL

Kd (HLA-A*02:02; source organism: Homo sapiens): 12.4 µM
Kd (HLA-A*02:03; source organism: Homo sapiens): ≥ 32.8 µM
Kd (HLA-A*02:06; source organism: Homo sapiens): ≥ 78.7 µM
Kd (HLA-A*68:02; source organism: Homo sapiens): ≥ 107 µM
Sequence: DLENRCQSL

Kd (HLA-A*02:06; source organism: Homo sapiens): ≥ 50.3 µM
Kd (HLA-A*68:02; source organism: Homo sapiens): 10.3 µM
Sequence: KLKNKHEAMI

Sequence: EDQFLPFMS
Kd (HLA-B*44:03; [8]): ≥ 39.6 µM
Kd (HLA-B*45:01; [8]): ≥ 23.9 µM
Kd (HLA-B*40:02; [8]): 7.96 µM
Kd (HLA-B*18:01; [8]): ≥ 77.5 µM
Kd (HLA-B*40:01 [1]; [8]): 5.67 µM
Kd (HLA-B*44:02 [2]; [8]): 17.4 µM

Sequence: MTGPLVAGGL
Kd (HLA-A*68:02; source organism: Dengue virus 2 Jamaica/1409/1983): 0.0216 µM

Sequence: SDYDYYRYNL
Kd (HLA-B*44:03; [7]): 9.73 µM
Kd (HLA-B*45:01; [7]): ≥ 25 µM
Kd (HLA-B*40:02; [7]): ≥ 51.6 µM
Kd (HLA-B*18:01; [7]): ≥ 70.5 µM
Kd (HLA-B*40:01 [1]; [7]): ≥ 69.6 µM
Kd (HLA-B*44:02 [2]; [7]): 12.4 µM

Sequence: MAVGIVSILL
Kd (HLA-A*68:02; source organism: Dengue virus 1 Singapore/S275/1990): 0.00558 µM

Sequence: LLGLWGLAAL
Kd (HLA-A*02:02; [9]): 0.004 µM
Kd (HLA-A*02:03; [9]): 0.00938 µM
Kd (HLA-A*02:01 [3]; [9]): 0.0507 µM
Kd (HLA-A*02:06; [9]): 0.144 µM
Kd (HLA-A*68:02; [9]): 5.82 µM

Sequence: PELLNNQFGT
Kd (HLA-B*44:03; [10]): ≥ 69.7 µM
Kd (HLA-B*45:01; [10]): ≥ 70 µM
Kd (HLA-B*40:02; [10]): ≥ 27.2 µM
Kd (HLA-B*18:01; [10]): 16.2 µM
Kd (HLA-B*40:01 [1]; [10]): ≥ 69.5 µM
Kd (HLA-B*44:02 [2]; [10]): ≥ 70.2 µM

Sequence: FANHAFTLV
Kd (HLA-A*02:02; [9]): 0.0327 µM
Kd (HLA-A*02:03; [9]): 0.000226 µM
Kd (HLA-A*02:01 [3]; [9]): 0.0687 µM
Kd (HLA-A*02:06; [9]): 0.0012 µM
Kd (HLA-A*68:02; [9]): 0.0232 µM

Sequence: SEYDYVIFT
Kd (HLA-B*44:03; [7]): 0.0251 µM
Kd (HLA-B*45:01; [7]): 0.0114 µM
Kd (HLA-B*40:02; [7]): 0.034 µM
Kd (HLA-B*18:01; [7]): 3.27 µM
Kd (HLA-B*40:01 [1]; [7]): 0.998 µM
Kd (HLA-B*44:02 [2]; [7]): 0.125 µM

Sequence: AELLNNQFGT
Kd (HLA-B*44:03; [11]): 16.6 µM
Kd (HLA-B*45:01; [11]): 11.4 µM
Kd (HLA-B*40:02; [11]): 1.12 µM
Kd (HLA-B*18:01; [11]): ≥ 70.4 µM
Kd (HLA-B*40:01 [1]; [11]): 2.32 µM
Kd (HLA-B*44:02 [2]; [11]): 3.24 µM

Sequence: AEVQIDRLI
Kd (HLA-B*44:03; [7]): 0.094 µM
Kd (HLA-B*45:01; [7]): 0.985 µM
Kd (HLA-B*40:02; [7]): 0.0924 µM
Kd (HLA-B*18:01; [7]): ≥ 77.5 µM
Kd (HLA-B*40:01 [1]; [7]): 10.9 µM
Kd (HLA-B*44:02 [2]; [7]): 0.0901 µM

Sequence: MAIGIVSIL
Kd (HLA-A*68:02; source organism: Dengue virus 1 Brazil/97-11/1997): 0.00239 µM

Sequence: RLLGTFTWTL
Kd (HLA-A*02:02; [11]): 0.117 µM
Kd (HLA-A*02:03; [11]): 0.106 µM
Kd (HLA-A*02:06; [11]): 0.00755 µM
Kd (HLA-A*68:02; [11]): ≥ 5 µM

Sequence: VEFLKDAWEI
Kd (HLA-B*44:03; [7]): 0.614 µM
Kd (HLA-B*45:01; [7]): 4 µM
Kd (HLA-B*40:02; [7]): 0.0774 µM
Kd (HLA-B*18:01; [7]): 3.72 µM
Kd (HLA-B*40:01 [1]; [7]): 0.965 µM
Kd (HLA-B*44:02 [2]; [7]): 0.641 µM

Sequence: GSEVPGFCH
Kd (HLA-A*11:01): ≥ 20 µM
Kd (HLA-A*69:01): ≥ 20 µM
Kd (HLA-A*31:01): ≥ 20 µM
Kd (HLA-B*58:01): ≥ 20 µM
Kd (HLA-B*27:05): ≥ 20 µM
Kd (HLA-B*07:02): ≥ 20 µM
Kd (HLA-A*02:01 [4]): ≥ 20 µM
Kd (HLA-A*26:01): ≥ 20 µM
Kd (HLA-B*15:01): ≥ 20 µM
Kd (HLA-A*03:01): ≥ 20 µM
Kd (HLA-A*01:01): ≥ 20 µM
Kd (HLA-B*08:01): ≥ 20 µM
Kd (HLA-A*24:03): ≥ 20 µM
Kd (HLA-B*40:01 [5]): ≥ 20 µM
Kd (HLA-B*44:02 [6]): ≥ 20 µM

Sequence: PDFELLLSL
Kd (HLA-B*44:03; [12]): ≥ 35.8 µM
Kd (HLA-B*45:01; [12]): ≥ 38.1 µM
Kd (HLA-B*40:02; [12]): 0.00218 µM
Kd (HLA-B*18:01; [12]): 0.701 µM
Kd (HLA-B*40:01 [1]; [12]): 14.6 µM
Kd (HLA-B*44:02 [2]; [12]): 7.83 µM
